B1: soluble high affinity c50 ILT-like polypeptide dimer, Q8NHL6 25-217 (receptor)
chain: MHLPKPTLWAEPGSVITMDQPVTLRCQGGQETQEYRLYREKKTAPWITRIPQELVKKGQFPIPSITWEHAGRYRCYYGSDTSQWSASSDPLELVVTGVYIKPTLSAQPSPVVNSGGNVTLQCDSQVAFDGFILCKEGEDEHPQCLNSQPHARGSSRAIFSVGPVSPSRRWWYRCYAYDSNSPYEWSLPSDLLELDVDGC
modifications: here or on the partner: additional C-terminal cysteine linked through maleimide to MAL-PEG-MAL, MW 3.4 KD
B2: soluble high affinity c50 ILT-like polypeptide tetramer, Q8NHL6 25-217 (receptor)
chain: MHLPKPTLWAEPGSVITMDQPVTLRCQGGQETQEYRLYREKKTAPWITRIPQELVKKGQFPIPSITWEHAGRYRCYYGSDTSQWSASSDPLELVVTGVYIKPTLSAQPSPVVNSGGNVTLQCDSQVAFDGFILCKEGEDEHPQCLNSQPHARGSSRAIFSVGPVSPSRRWWYRCYAYDSNSPYEWSLPSDLLELDVDGC
modifications: here or on the partner: additional C-terminal cysteine linked through maleimide to 4arm MAL-PEG, MW 20 KD
B3: soluble high affinity c50 ILT-like polypeptide monomer, Q8NHL6 25-221 (receptor)
chain: MHLPKPTLWAEPGSVITMDQPVTLRCQGGQETQEYRLYREKKTAPWITRIPQELVKKGQFPIPSITWEHAGRYRCYYGSDTSQWSASSDPLELVVTGVYIKPTLSAQPSPVVNSGGNVTLQCDSQVAFDGFILCKEGEDEHPQCLNSQPHARGSSRAIFSVGPVSPSRRWWYRCYAYDSNSPYEWSLPSDLLELDVDG

This experiment has as its target Class I MHC. Description: cell-based or functional assay.
On to B1, for which the IC50 for the inhibition of CTLs (IFN-gamma ELISPOT, MART-1 specific T cell clone KA/C5 with Mel 624 / Mel 526 target cells) worked out at 16.2 nM.
With B2, the IC50 for the inhibition of CTLs (IFN-gamma ELISPOT, MART-1 specific T cell clone KA/C5 with Mel 624 / Mel 526 target cells) stood at 0.7 nM.
In the case of B3 it was 800 nM.

For the origin of these results see patent US20090208447A1.
